In the nanobody polyreactivity screen of Harvey et al. (2022):

Experiment: yeast display, Sf9 membrane polyspecificity reagent, FACS + sequencing; frameworks hold sequencing errors
Procedure, shortened: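 After 36–48 hours of galactose induction, yeast (Saccharomyces cerevisiae BJ5465) displaying a synthetic nanobody library were stained at 4 °C for 1 hour with 10% biotinylated, detergent-solubilized Sf9 membrane reagent. Streptavidin microbeads enriched the stained cells before FACS sorting into low and high (top ~1%) gates on anti-HA and streptavidin fluorescence. Each clone's polyreactivity label reflects its gate of origin.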

| Sequence | polyreactivity (PSR sort gate) |
| --- | --- |
| QVQLVESGGGLVQAGGSLRLSCAASGLTFYDYAMGWYRQAPGKERELVAAISSGGSTYYADSVKGRFTISRDNAKNTVYLHMNSLKPEDTAVYYCAARPAYRVHAMGYWGQGTQVTVSS | low polyreactivity |
| QVQLVESGGGLVQAGGSLRLSCAASGRIFVSNAMGWYRQAHGKERELVAGITWTSGSTYYADSVKGRFTISRDNAKNTVYLLMNSLKPEDTAVYYCAAEYWYGNAFDYWGEGTQVTVSS | low polyreactivity |
| QVQLVESGGGLVQAGGSLRLSCAASGSTIYAMGWYRQAPGKERELVAGINRSGTRTYYADSVKGRFTISRDNAKNTVYLQMNSLKPEDTAVYYCAALVYRPTYGYIFDYWGQGTQVTVSS | high polyreactivity |
| QVHLVESGGGLVQAGGSLRLSCAASGRIFYSNVMGWYSQAPGKERELLAAISWSGGRTYYADSVKGRFTISRDNAKNTVYLQMNSLKPEDTAVYYCAAPGGVKYDYWGQGTQVTVSS | high polyreactivity |
| KVQHVESGGGLVQAGGSLRLSCAASGLTFYTNAMGWYRQPPGKESEFVADITTSGGDTYYADSVKGRFTISRDNAKNTVYLQMNSLKPEDTAVYYCGEFWSYWGYGQYDYWGQGTQVTVSS | low polyreactivity |
| QVQLVESGVGLVQAGGILRLSCAASGSSFRGYAMGWYRQAPGKERELVAAISSRGARTHYADSVKGRFTISRDNAKNTVYLQMNRLKPEDTAVYYCNKRQVFVSTGEYEFDYWGQGTQVTVSS | low polyreactivity |
| QVQLVESGGGLVQAGGSLRLSCAASGYTVLYAIGWYRQAPRKDRELVAAISSRTGTTYYADSVKGRFTISRDNAKNSVYLQMNSLKREDTAVYYCNVEYFYYFRENGDYWGQGTQVTVSS | low polyreactivity |
| QVQLVESGGGLVQAGGSLRLSCAASGITLSNYAMGWYRQAPVKEREFVAALTRSGDSTYYADSVKGRFTISRDNAQNTVYLQMNSLKPEDTAVYYCPAEEHRYTEVYPTSTTDEYDYRGQGTQVTVSS | low polyreactivity |
| QVQLVESGGGLVQAGGSLRLSCAASGSIFKQYDMGWYRQAPGKERDLVAAITASDGSTYYADSVKGRFTISRDNAMNTVYLQMNSLKPEDTAVYFCAADGGVAWGYGYCGQGTQVTVSS | low polyreactivity |
| QVQLVESGGGLVQAGGSLRLSCAASGSTLSKNAMGWYRQAPGKERELVAAMTRRGGSTSYADSVKGRFTMSRDYAKNTVYLQMNSLKPEDTAVYYCNAVSKYDYGYWGQGTQVTVSS | high polyreactivity |
| QVQLVESGGGLVQAGGSLRLSCAASGSTFWYYAMGWYRPAPGKERELVAAITISGGSTYYADSVKGRFTISRDNAKNTVYLQMNSLKPEDTAVYYCATDDTHRVGWFDYWGQGTQVTVSS | low polyreactivity |
| QVQLVDSGGGLVQARGSLRLSCAASGYNFGNAMGWYRQPPGQEREFVAAISSSGSSTYYADSVKGRFTISRDNAKNTVYLQMNSLKPEDTAVYYCAKSRRSAAPKYDYWGQGTQVTVSS | high polyreactivity |
| QVQLVESGGGLVQAGGSLRLSCAASGSTFKIYAMGWYRQAPGKERELVAAITRSGGSTYYADSVKGRFTISRDNAKNTVYLQMNSLKPEDTAVYYCAASRFTSYGIDYDYWGQGTQVTVSS | high polyreactivity |
| QVQLVESGGGLVQAGGSLRLSCAATGIIFRDYGKGWYRHAPGKQREFVATITYSGGGTYYADSVKGRFTISRDNAKNTVYLQMNSLKPEDTAVYYCAAYPFYYDLAYDYWGQGTQVTVSS | low polyreactivity |
| QVQLVESGGGLVQAGGSLRLSCAASGSIFPYYALGWYRQAPGKERELVAAISWSGTSTYYADSVKGRFTISRDNAKNTVYLQMNSLKPEDTAVYYCNAGYYHFYASGYDYWGQGTQVTVSS | low polyreactivity |
| QVQLVESGGGLVQAGGSLRLSCAASGRTFRRYAMGWYRQAPGKERELVAAITWGAGSTRYADSVKGRFTISRDNAKNTVYLQMNSLKPEDTAVYYCAAENTRAYGMYYWGQGTQVTVSS | high polyreactivity |
| QVQLVESGGGLVQAGGSLRLSCDASGRTSGINAMGWYRQAPGKERELVAAISSGGRTYYADSVKGRFTISRDNAKNTVYLQMNSLKPEDTAVYYCAAVIHWSLYRRMEYWGQGTQVTVSS | high polyreactivity |
| QVQLVESGGGLVQAGGSLRLSCAASGSIFDDYAMGWYRQAPGKERELVAAISWSGGRTYYADSVKGRFTISRDNAKNTVYLQMNSLKPEDTAVYYCAATTGVRSRRYYYWGQGTQVTVSS | low polyreactivity |
| QVQLVESGGGLVQAGGSLRLSCAASGITFPLYAMGWYRQAPGKERELVATISGRGGSTYYADSVKGRFTISRDNAKNTVYLQMNSLKPEDTAVYYCNADFRSPYFLLSWYHSGDYWGQGTQVTGSS | low polyreactivity |
| QVQLVESGGGLVQAGGSLRLSCAASGITFVNNSRGCYRQAPVKEREFVAAISQGGGSTYYADSVKGRFTISRDNAKYTVYLQMNSLKPEDTAVYYCAAEIPRWWRFGYWGQGTQVTVSS | low polyreactivity |
| QVQLVESGGGLVQAGGSLRLSCAASGSIFSYYAMGWYRQAPGKERELVAAIRWRTGNTYYADSVKGRFTISRDNAMNTVYLQMNSLKPEDTAVYYCNAVYRYNYGYREYEYWGQGTQVTVSS | high polyreactivity |
| QVQLVESVGRLVQAGGSLRLSCAASGSIIRSYTKGWYRQAPGKEWELVAASSGRAGSTYYADSVKGRFTISRDIAKNTVYLQMPGLKPEDTAVYYCAVILGGRAQSYYWGHGTQVTVSS | high polyreactivity |
| QVQLVESGGGLFQAGGSLRLSCAASGFIFFPYTMGWYRQAPGKERELVAAITNGGSTSYADSVKGRFTISRDNAKNTVYLQMNSLKPEDTAVYYCAADLGRNLLHTYYYWGQGTQVTVSS | low polyreactivity |
| QVQLVESGGGLVQAGGSLRLTCAASGLILVPNTMGWYRQAPGTERELVAAISYSGGGTYYADSVKGRFTISRDNAKNTVYLQMNSLKPEDTAVYYCAAYVKRESAPYGYWGQGTQVTVSS | low polyreactivity |
| QVQLVESGGGLVQAGGSLRLSCAASGRTFVGYAMGWYRQAPGKERELVAAITSGGSTYYADSVKGRFTISRDNAKNTVYLQMNSLKPEDTAVYYCATALYDWYSLEFDYWGQGTQVTVSS | low polyreactivity |
| QVQLVESGGGLVQAGGSLRLSCAASGFMFDDNAMGWYRQAPRKERELVAAITSGGGSTYYADSVKGRFTISRDYAKITVYLLMNSLKPEDTAVYYCAAGGYPSLLHDYDYWGQGTQVTVSS | low polyreactivity |
| QVQLVESGGGLVQAGGSLRLSCAASGRILTSNAMGWYRQAPGKERELVAAISWSGGSTYYADSVKGRFTISRDNAKNTVYLQMNSLKPEDTAVYYCNADDTPVPSIRFDYWGQGTQVTVSS | low polyreactivity |
| QVQLVESGGGLVQAGGSLRLSCADSGFTFILYAMGWYRQAPGKERELVAAITTSGGRTYYADSVKGRFTISRDNAKNTVYLQMNSLKPEDTAVYYCAAKEYYTPYRRGYWGQGTQVTVSS | high polyreactivity |
| QVQLVESGGGLVQAGGSLRLSCAASGYILTHYAMGWYRQAPGKERELVAAITRVGNTNYADSVKGRFTISRDNAKNTVYLQMNSLKPEDTAVYYCAADGVASLFGDPPTEFDYWGQGTQVTVSS | low polyreactivity |
| QVQHVESGGGLLQAGGSLRLICAAYGSTFGTYAMGWYRQAPGKERELVATISIGGITYYADSVKGRFTNSRDNAKYTVYLQMNSLKPEVTAVYYCAKDVTDATSRSDPSGDDYWGQGTQVTVSS | low polyreactivity |
